Test: soluble on expression in E. coli; label from the status in PepcDB or PDB records

Sequence	soluble on expression in E. coli
MGSDKIHHHHHHMKFFSAPSPATRPPMRNRLPPLNPLRAFEAAARCGTVSAAADELHVTASAVSHQIRILESTLGVALFVRSKARVKLTPEGEALLEPVGAAFDMIANATVRLDSPAAAGDLVVSTPLSLTSRWLARHIGDFLERYPGIHLKVIPSNDDRETYSPDVDVCIRYGEGNWRNRRVELLAHPALFPVVSPALMNGPDAIRKVQDLAGRTLFCEHAGSWMRWLAEANADKLPGIRILEIGNAHIGVEAAVHGQGVALGDSLSVRDDLLDGTLVRPFSAAVPSRHAYYLVTRHELADSPLVTAFTTWLRACLA	not soluble
MDDPASYELDPSIAQRVKFNSAGLVPAVVQSTDGEVLMLAWMDAHALAYTIATRKGTYFSRSRNEYWIKGLTSGHTQQVTGLQLDCDGDTVLMTVVQQGGACHTGDRTCFDADVII	not soluble
SASSDLEQLCSHVNEKIGNIKKTLSLRNCGQEPTLKTVLNKIGDEIIVINELLNKLELEIQYQEQTNNSLKELCESLEEDYKDIEHLKENVPSHLPQVTVTQSCVKGSDLDPEEPIKVEEPEPVKKPPKEQRSIKEMPFITCDEFNGVPSYMKSRLTYNQINDVIKEINKAVISKYKILHQPKKSMNSVTRNLYHRFIDEETKDTKGRYFIVEADIKEFTTLKADKKFHVLLNILRHCRRLSEVRGGGLTRYVIT	soluble
MPYYVYLLACGKHGTLYLGVTNDLVRRVHEHRSKATPGFSEHYGVGRLVWFEIYHDAITAITREKQLKKWRRDWKVRLIENQNPDWVDLYPGICR	not soluble
MSLIPATLLLVEDDPDQRIIMQRKLQQQGYKVICAENGEEAVDLYNNNTIDLVLMDAQLPGMDGFEACFLITHTETGSRCPVMMITSLENSESVDRAFQVGAEEYVPKPIHWKVLMQRIRRQIKSRRVHQEGHHHHHH	soluble
MAHHHHHHMKRGGRKKKGTLSNKLGKGKNDPSEDEEVIESETSSDEMGESNSASEESIDSDADNLSDKEQESQAEKQIQIYFTSNVANEKYQMEDTIYTIPATFKRIDLSRMVKKLLDIKENVSFEFLINDQILRSSIEEFLQLNNILSENVIEIKYILSITKKESTPIDKISEWISKLIIIENRLYCSTFGGSALCYDMSNFAKIDARKVADMSIFAFNVCKNDKLIDGEVKYSESVVGLSNGTIRAFLNEEMDQKIVTRSDLYLGNHDDMVKSIAFNKSGSLLITGGADNKINLYDNKEIVQKLKEYKSENDTNKRKMKHVLTPKKCIHKDVGIITTLTFFNSNNHFLCTGLEKNIKIYDADTADLFATLPYGKAIMCSDILNDNLFVTADEQSVIKLFDVRCLEEKAVISMNENKYFFHDKVITSLWGNKNGIHFLSSSHDGFTNIYDVRLNKFPVYTIQTEDKSKVLSSTWFYRESNNYVINADENNLTLHSF	not soluble
RNRQQRPGTIKHGSALDVLLSMGFPRARAQKALASTGGRSVQTACDWLFSH	soluble
VAERNSLAKTVYAIFVPLREGESQIAAEITPMRSERFGVDVLPGHPALSQIEDLMSDSWQSALGRQTGPFRRIHWAGQLAHAMERDDRYDVIFFDVGPSLGPFNRTVLLGCDAFVTPTATDLFSFHAFGNLARWFDAWVTQYAEIHEGNMAEWKKYSADVEAKTRPLRLGGFDGEGLRYLGYTTLEYVKRRANGQEQLVGAFERFRGRFAAEAERISNSLSKHSNSTLLGHVPHMHSMPATAQDVHAPIMELSSSDRVRGAQINQRNAYAEKINSVAANVYKALFPNE	not soluble
MSLALDGKSLSGFSHVHVGSLYNAEALEKSVEEMQVETSRRGYAFAVVRPRGDRNFDAHTVSIVFAIDEGPRTYIERINIRGNTRTRDYVIRREFDISEGDAYNRSLVDRAERRLKNLDFFKTVKITTEPGSSSDRVILDVDVEDKSTGDFSVSGGYSTTQGALAEVSVSERNLLGRGLYAKASVQYGQYARGYSLSFVEPYLLDYRVALGLDFYQREQLANQYISYNIKTLGFSPRLGFGLREDLTLQLRYSIFRQEIGLPTSLRNCNNNIGGPNYNPSPAFLNSIGQFNPNNPTLGCYSDGEASLPIRQELGGQTLTSMLGYTLTYNTLDNNKNPTDGLLIDFRQDFAGVGGDVKYLKTAIDAKYYQPLVSDIVGLVHLQGGILNNVGAYAGQNGIRMLDNFQMGPNLVRGFAPNGIGPRDINFLSTMDALGGTQYWGASVELQMPFWFLPKEVGLKGAVYADAGSLWGYKGPTSNLATNEFNAPGCMPSTSRSNPGTCAGLQFDDTNVVRTSVGVGLIWQSPFGPLRFDYAVPITKGKYDRVQEFRFGGGTTEGHHHHHH	not soluble
